In article PMC3612955 one finds Mical enzymatic activity (conversion of NADPH to NADP+) with F-actin data, which are given here for one substance.

In this experiment the target is actin (untreated, of the in vitro assays of Fig. 1) (UniProt P68135).

Chain of Mical (Q86BA1 whole entry): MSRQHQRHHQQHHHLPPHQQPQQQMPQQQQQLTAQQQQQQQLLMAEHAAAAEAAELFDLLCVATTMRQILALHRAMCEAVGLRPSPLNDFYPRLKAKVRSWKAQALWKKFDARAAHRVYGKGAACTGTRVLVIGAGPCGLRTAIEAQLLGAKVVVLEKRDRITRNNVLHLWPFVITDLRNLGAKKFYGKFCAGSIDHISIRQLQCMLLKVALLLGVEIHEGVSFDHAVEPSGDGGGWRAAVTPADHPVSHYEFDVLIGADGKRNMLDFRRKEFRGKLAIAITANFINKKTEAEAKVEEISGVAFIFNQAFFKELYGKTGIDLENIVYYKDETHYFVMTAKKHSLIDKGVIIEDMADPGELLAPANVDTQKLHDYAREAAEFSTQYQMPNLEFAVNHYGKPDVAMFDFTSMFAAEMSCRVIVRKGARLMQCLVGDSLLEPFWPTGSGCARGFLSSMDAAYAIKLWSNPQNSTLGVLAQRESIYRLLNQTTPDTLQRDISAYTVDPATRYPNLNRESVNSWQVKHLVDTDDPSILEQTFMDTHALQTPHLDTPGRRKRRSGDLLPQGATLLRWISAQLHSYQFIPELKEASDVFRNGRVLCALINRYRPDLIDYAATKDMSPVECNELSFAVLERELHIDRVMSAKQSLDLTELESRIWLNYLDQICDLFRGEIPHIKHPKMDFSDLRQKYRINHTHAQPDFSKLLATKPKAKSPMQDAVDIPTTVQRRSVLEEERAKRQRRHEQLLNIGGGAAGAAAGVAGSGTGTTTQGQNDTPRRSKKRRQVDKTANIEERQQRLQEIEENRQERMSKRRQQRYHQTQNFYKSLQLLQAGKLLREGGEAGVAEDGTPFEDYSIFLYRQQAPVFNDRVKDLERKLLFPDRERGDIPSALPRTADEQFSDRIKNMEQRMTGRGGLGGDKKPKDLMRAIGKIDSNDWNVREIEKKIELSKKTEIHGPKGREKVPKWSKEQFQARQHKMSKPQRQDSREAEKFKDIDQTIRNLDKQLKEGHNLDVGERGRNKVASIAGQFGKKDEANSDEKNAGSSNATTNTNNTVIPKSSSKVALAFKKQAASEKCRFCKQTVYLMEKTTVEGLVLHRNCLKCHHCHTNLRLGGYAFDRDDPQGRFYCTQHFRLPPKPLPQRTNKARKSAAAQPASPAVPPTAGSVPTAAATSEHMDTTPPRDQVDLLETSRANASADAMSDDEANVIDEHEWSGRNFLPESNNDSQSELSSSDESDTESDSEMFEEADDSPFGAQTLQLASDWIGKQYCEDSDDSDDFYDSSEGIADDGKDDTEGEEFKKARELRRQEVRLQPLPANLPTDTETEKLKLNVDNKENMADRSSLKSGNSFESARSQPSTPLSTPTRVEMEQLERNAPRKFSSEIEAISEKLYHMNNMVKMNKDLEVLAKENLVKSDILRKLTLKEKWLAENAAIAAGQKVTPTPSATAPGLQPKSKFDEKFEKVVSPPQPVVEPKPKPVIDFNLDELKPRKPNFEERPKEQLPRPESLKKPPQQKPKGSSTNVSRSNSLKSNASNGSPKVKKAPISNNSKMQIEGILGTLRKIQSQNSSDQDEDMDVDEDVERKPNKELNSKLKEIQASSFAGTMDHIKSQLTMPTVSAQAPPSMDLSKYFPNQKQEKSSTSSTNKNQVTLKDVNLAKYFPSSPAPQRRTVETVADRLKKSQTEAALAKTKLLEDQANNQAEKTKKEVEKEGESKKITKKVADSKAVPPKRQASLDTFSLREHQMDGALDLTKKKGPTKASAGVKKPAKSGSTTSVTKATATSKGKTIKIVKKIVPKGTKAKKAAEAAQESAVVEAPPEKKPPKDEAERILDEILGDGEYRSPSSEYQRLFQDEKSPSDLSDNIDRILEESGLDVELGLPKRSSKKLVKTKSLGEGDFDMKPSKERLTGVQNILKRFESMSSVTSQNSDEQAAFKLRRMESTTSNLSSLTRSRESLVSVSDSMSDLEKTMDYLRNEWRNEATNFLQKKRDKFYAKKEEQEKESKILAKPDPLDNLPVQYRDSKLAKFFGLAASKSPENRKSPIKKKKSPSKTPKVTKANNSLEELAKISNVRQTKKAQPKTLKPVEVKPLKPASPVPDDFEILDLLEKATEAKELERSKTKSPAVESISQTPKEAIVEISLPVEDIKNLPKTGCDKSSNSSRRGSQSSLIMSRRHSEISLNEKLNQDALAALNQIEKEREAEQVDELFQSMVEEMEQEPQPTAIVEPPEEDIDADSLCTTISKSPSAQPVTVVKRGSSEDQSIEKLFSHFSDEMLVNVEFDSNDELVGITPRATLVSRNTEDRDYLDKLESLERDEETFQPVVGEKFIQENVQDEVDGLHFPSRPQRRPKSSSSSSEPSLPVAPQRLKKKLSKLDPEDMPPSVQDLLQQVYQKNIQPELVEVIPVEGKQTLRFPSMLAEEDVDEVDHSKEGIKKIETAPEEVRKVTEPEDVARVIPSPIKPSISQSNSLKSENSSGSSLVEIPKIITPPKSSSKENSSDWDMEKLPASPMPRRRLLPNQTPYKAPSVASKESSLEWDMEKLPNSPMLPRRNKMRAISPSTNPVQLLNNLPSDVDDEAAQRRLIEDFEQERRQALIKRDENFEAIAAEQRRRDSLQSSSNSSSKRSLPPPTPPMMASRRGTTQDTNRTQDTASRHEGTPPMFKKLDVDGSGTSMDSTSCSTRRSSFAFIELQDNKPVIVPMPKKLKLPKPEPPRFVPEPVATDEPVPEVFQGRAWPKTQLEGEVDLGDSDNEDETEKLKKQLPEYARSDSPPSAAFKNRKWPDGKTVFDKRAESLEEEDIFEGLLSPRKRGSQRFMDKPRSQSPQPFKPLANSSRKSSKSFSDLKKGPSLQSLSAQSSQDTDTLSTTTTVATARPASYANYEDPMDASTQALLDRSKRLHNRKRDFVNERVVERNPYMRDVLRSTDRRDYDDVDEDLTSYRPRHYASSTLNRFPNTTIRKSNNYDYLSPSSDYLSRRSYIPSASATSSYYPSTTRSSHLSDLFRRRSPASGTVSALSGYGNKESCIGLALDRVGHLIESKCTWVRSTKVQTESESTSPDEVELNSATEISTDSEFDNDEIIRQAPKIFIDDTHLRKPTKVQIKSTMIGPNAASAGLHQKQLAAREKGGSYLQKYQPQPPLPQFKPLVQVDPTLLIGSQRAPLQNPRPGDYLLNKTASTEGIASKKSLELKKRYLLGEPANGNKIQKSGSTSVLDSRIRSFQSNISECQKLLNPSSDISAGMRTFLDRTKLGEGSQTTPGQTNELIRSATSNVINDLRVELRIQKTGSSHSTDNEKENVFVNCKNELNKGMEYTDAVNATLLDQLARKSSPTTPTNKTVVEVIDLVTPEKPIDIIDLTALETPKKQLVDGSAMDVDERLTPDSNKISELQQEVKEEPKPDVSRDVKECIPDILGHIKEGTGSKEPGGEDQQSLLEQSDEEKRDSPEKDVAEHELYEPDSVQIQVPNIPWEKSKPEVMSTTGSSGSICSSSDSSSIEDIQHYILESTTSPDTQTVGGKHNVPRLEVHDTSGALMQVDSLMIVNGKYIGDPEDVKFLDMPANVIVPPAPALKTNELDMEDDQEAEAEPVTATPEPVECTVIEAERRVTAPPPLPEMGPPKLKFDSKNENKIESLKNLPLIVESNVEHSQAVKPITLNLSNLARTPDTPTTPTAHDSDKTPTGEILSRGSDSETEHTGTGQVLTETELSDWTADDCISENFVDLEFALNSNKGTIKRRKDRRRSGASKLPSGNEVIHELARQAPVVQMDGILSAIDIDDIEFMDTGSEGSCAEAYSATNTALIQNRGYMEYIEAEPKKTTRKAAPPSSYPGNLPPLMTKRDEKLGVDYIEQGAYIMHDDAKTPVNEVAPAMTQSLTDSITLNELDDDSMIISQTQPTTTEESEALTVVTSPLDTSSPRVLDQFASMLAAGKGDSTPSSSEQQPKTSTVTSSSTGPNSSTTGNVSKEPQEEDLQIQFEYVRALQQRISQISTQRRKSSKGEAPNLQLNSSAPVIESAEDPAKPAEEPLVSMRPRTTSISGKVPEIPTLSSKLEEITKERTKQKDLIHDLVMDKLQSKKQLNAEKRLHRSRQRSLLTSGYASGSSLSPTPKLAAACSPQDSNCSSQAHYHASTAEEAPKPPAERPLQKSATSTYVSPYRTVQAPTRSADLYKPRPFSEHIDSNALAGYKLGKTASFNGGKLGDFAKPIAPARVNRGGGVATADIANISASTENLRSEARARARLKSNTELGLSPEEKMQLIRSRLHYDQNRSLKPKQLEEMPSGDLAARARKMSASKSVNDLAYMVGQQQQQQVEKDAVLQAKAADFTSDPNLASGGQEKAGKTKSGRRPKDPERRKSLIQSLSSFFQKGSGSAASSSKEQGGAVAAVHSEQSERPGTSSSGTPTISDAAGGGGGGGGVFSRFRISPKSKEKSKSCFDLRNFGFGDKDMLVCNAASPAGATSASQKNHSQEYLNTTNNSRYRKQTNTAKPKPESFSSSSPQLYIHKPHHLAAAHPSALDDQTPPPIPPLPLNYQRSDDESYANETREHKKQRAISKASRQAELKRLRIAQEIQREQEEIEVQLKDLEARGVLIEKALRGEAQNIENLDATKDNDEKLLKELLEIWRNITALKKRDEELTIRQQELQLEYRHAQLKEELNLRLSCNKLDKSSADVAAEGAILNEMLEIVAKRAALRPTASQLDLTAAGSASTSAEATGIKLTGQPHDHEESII

“Mical (from UniProt Q86BA1 1-4723) (enzyme)” gave a Mical enzymatic activity (conversion of NADPH to NADP+) with F-actin greater than 100 fold.
